The source of these data is the DeepSol protein solubility set.

This data set in a line: soluble on expression in E. coli; label from the status in PepcDB or PDB records.
For “GMGISNIKQLYSKWKSLQPLKPEDLKRWNDKFKLEFNYNSNHLEGNTLTYGQTKLLLMFGETSGNASLKDYEEMKAHNVGLEMIKQEAQDKERPLTESFIRELNRTILVQDYWKNAKTPDGQDIRMQIKVGEYKSRPNSVLTATGEVFSYASPEETPAFMTSLVDWYNLEADKGILTPVELAALLHYRYIRIHPFEDGNGRIARLLVNFVLHRYGYPMIVIHSEDKSNYLNILHQCDVEAGLTPSDGANATLNDILPFVNYLSSCLIRSLTLAIKAAKGESIEEEGDFDKK”, the “soluble on expression in E. coli” value is reported as “soluble”. Then “MLLKALCIINALIIGIINADILSDPNYRIFRDISAIRQVVTLARPVKNVSTTELPTYYETNYNISRRVKRQACASSCAPLEKATTPAYEGLIATENFYITYSTDGSGCPIADLTCVGGDMATLDYLDQNGDIITLGDGGDDYNILEAQLKCFAFGWGAATATEVIDGNSLNCNVLTDIPVTTTTSTTSSTTTTTATSTTESTSTSTDSTTTESTTESTTESTSTSTDSTTTESTTESTTESTSTSTDSTTTESTSTSTDSTTTESTTESTTESTSTSTDSTTTSLPALPLILLQPSLPQNQLRSLPAHPLNLLQPSLPQNQLRSLPALPLILLQPSRQALPLILLQPSLPQNQLRSLPAHPRILPRPSLPALPLILLQPSLPQNQLRSLLAHPLILPRLSQQQNQLRSLPAHPPILLQPSLPQNQLRSLPALPLILLQPSLPLNQLRSLPAHPLILLQPSQQQNQLRSLPAHPLILPRPSLPLNQLRSLPAHPLILLQPSLPQNQLRSQPAHPLILPRLSQQAHPLIPPRPSRRALRLILPQLKLLLLRLTLQRQCQELHAVHLEVSGVNGLLTLLALQHVDLVHNKSTDVFALLKLIVEHARMGADVKIQNCNVGVCYFPLDSCCAGYTATVSGTLHICGPQPTTTTPAPNDETCCPLDGIWGAWGEWSVCTGTTCGNCGGSRTRTRVCASDSFCSCNGDTTESENCRLLSSWSEWTTTGTCNQTACGTCQTLTYTRTCLKTNGCFCMGSATKTDYCSRKPCATGTACCNSLTAQTVDGVSICGPVEAAEDETDPVPCTTTTPACCVLGGVWSEWSSGDACNDTCGNCGVTTLSRVCLSQDYNCACSGSTTKQSECAPAPCPFPRTSCCGARKKVIVGRTFECSSADDSDAAPSTLCAVDCCPAAGGYWSEWTTGGSCPTTCGSCSTVTQKRVCMSPSTCPCQGVSSRSVNCGITVCYFPDDSCCAGYSATVSGTQHICGPQPNYTTPYAPYDPTCTDNCCPETGIWSDWTSTPNQCRDYCGSCGNQTRTRTCTSDADGCPCQGPTTITEPCGTGVCYFPRLSCCPGYTATVEGNQHICGPLTTAVADPDKLNTCGVSCCPSAGIWGEWVSVSGCNDTCGSCGQETRKRKCLSLQYGCACTGNATDTSVCASSVCLFPRTSCCTGFKKMVNITGRTFYCGPLPVVPAFNPEQTTCCDPEKTGLWNDWGAWTTCSATCGGCGTQTRSRTCASAPYGCPCTGDLTETQSCAKQVCTTGAQCCAGKFVATGYDGAQYCQDNTPEVCTGTWTEWATLEGAVCNDTCGNCGIIPTSRYCFPSGCQCSGAYTGTQACANSVCLFPRTSCCAPYKKKIVGKTFACA”, with “not soluble”. Then “MGSDKIHHHHHHVEPRSLRSRRSSSYYCGELIKADFSQRREFVMRNSLRRWKNEKLAQKLKKVFESKSVRVIYLPDIEMVVEEVHKLIPDGATVSSGGSVTLQETGVMDLLRSGKYEFLDRDSVSEDKERRKIMIKAFESDYYLCSANAITENGEILLLDGSGNRAAAVTFGPEKVIFVAGINKVVEDLDAGIKRIKSIAPMNAKRLNLHTPCATTGFCSDCSSEERICEMYSIIIDSRRRPWRYTIVLIGEELGL”, with “not soluble”; and “MGSDKIHHHHHHMRIAQIAPLHEAVPPKLYGGTERVVSYLTEALVEMGHDVTLFASGDSQTSAKLEAVWPQALRLDPTIRDVMAPHMLLLEEVRRRADEFDVLHFHIDYYPFPLFSRQPVPHLTTLHGRLDLPELQPIFNTFSDVPVVSISDNQRIPLSQANWLQTTYHGLPENLLKPIPDVKPSYLAFLGRISPEKRVDTAIRIAEQAGMPIKIAAKLDKADRAYYEEKIKPLFSLPHVEYIGEISEAEKAEFLGNAHALLFPIDWPEPFGLVMIEAMACGTPVIAFKRGSVPEVIENGVSGFVVEDELSAVAAVKRLNTLPRERVRAAFDARFTSKVMARNYVKGYEELLRQKRRTVLREVNAG”, with “not soluble”.

For “MKKIKALALFSGGLDSLLSMKLLIDQGIEVTALHFNIGFGGNKDKREYFENATAQIGAKLLVCDIREQFFNDVLFKPKYGYGKYFNPCIDCHANMFRNAFYKMLELNADFVLSGEVLGQRPKSQRKEALNQVRKLVREVGEEARFDPVLDRTQAGGKKPQFLDELLLRPMSAKLLEPTFMEKKGFVDREKLLDVSGRGRSRQLQMIKDYGLKYYEKPGGGCLLTDIQVSNKIKNLKEYREMVFEDSVIVKNGRYFVLPHNARLVVARNEEENHKLDIQHPLMDKIELLNCKGPLSLVDKNASKEDKELAGRIALGYAKTLKNQAYLIQIGDEKRELYPLDKENAREYLFALEHHHHHH”, the “soluble on expression in E. coli” value is on record as “soluble”.

Take “MGSDKIHHHHHHMLAEERQQMIAHYVDEHQICRVTELCRLTSTSESTIRRDLSEMEDRGLLKRVHGGAQSLQTFGQDVAQQIRFNLNKDDKLAIARLAARKVHPHDYLFLDAGTTIYEMVPFLKEISGLHVVTNGLETALALTDAGIDCCLLGGHVKRQTHAAIGATTVSRLQELNFNAAFIGANALSPAGFLTTPDTEEAAVKRTAIQQSQQAFVLIDRSKFNAVTFAEFAKTDQVTIISRLEAGDREKLPVNIQLEEAE”: the “soluble on expression in E. coli” value was “not soluble”. Then “MFDRSRKGEYALLIQPLTDHSAEDGALEEFADLTRSAGATVAGSLAVRIHRPNPSTLLSSGKLKEIKETADATGADLILINHSLSPVQERNLEKSLERRVIDRTGLILDIFAQRACSHEGKLQVELAQLRHLATRLVRGWTHLERQRGGAIGLRGPGETQLETDRRLLQKRVEQLQKRLSKVEVQRTQMRRARVRSEVPRIALVGYTNSGKSTLFNALTGASAYTANQLFATLDPKVRRIVLPGSSAMLADTVGFVRHLPHELVAAFRSTLSEAREADLLLHVIDAADPLREERIDQVDEVLQAIGAGELPQLLVFNKIDCIEGAEVRQDAQDGIPDQARRERVWLSARHGHGVELLQQILNHRLKIQNVQSELRLPPSEGRLRARLHELKGVREEQTDEHGWLLKIDLSLAEIERLAASDYGIPLRALLQDHRDAWTPTLHSKYVSAEYLEHHHHHH”, with “not soluble”; and “MASCQKSIFLGRLTTFTDSNISPTSLIFSSKMSSRTLRSSSSSNAISTKTQPKTEEAPLIPVTKGPVIRMTSNMADKAQNDHSMWPSTSKFESIWGNVLGERVNKSTIAAIREGMKIENKVTCGCRPGQDCSTNPACRCFQTASRLREHFGSDILTRGKPVKTVDTMYWDRPMFACSGSCGCKGQCNLNALQDICEDPAKKFKITRTDGKGFCVYSARVIKKGSPVLEFSGEITDYLAIKSNADIEQYSIMLYNNETKLCDFFSKEENLSSKYKKILWSAYRSKAWINPLNRGNCARFFSHGCKANMELGRVFQGGFSPADMKIVLFAKEIIKPGTELTFNYGPSYKEIFLGNKCLCEACKKEAVKKLENAVKRILKNSRDPSEPPSKKKSVKKLDGKENVR”, with “not soluble”; and “MTQQKLELTWFNKDQALIPQERGRYGYAWVDPHDPRYCQTHYLIEGETITGEQAPKQDGTQYGERADLEPTTDNLLINGESGDVLEALTRVPELADKYVGKVKCIYIDPPFNTAQTFANYEDNLEHSVWLTMMRDRLLHMKKLLSEDGSIWVHLDDVENHRMRLLMDEVFGAGNFVAEVVWEKTYSPRNDSKGIPAVTDTILVYRKSDQFSPNRLPRTAEMNARYKNPDHDRNGPWKSGDTTAPGNMSGKVQHPSVFAIQHPVTGQFIYPTYGRMWCFGQERILSSLSRYAPYRLAEPDMKSRSKRTGIPEEQLRADVFDLVVDETARQGDKTQAFRNISLGNWPEFFITDKGFGRKVPMSKSDGRVAPNLLRWEEVGHTDGAKKEITALFPNQAA”, with “not soluble”. Take “MWFFNKNLKVLAPCDGTIITLDEVEDEVFKERMLGDGFAINPKSNDFHAPVSGKLVTAFPTKHAFGIQTKSGVEILLHIGLDTVSLDGNGFESFVTQDQEVNAGDKLVTVDLKSVAKKVPSIKSPIIFTNNGGKTLEIVKMGEVKQGDVVAILK”: the “soluble on expression in E. coli” value is “soluble”.

Consider “MVFEGHLVGTGLKVGVVVGRFNEFITSKLLGGALDGLKRHGVEENDIDVAWVPGAFEIPLIAKKMANSGKYDAVITLGTVIRGATTHYDYVCNEVAKGVASLSLQTDIPVIFGVLTTETIEQAIERAGTKAGNKGYESAVAAIEMAHLSKHWA”, for which the “soluble on expression in E. coli” value is recorded as “not soluble”.
